21 molecules from PMC4797271, “The quorum-sensing regulator ComA from Bacillus subtilis activates transcription using topologically distinct DNA motifs” can be followed below.

The chains are these.
T1: ComA (Bacillus subtilis, UniProt P14204 1-214)
T1 sequence: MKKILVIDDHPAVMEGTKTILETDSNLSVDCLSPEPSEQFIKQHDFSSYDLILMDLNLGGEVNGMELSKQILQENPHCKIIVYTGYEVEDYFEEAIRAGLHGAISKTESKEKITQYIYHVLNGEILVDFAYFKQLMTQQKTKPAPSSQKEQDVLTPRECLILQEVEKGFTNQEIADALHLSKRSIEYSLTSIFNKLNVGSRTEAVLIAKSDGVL

B1: Ppel IR-DR core (dsDNA)
DNA 1: GGATTTTGCAGAATGCCGCAATAGGATAGCGGAACATTTTCGGTTCTG
DNA 2: CAGAACCGAAAATGTTCCGCTATCCTATTGCGGCATTCTGCAAAATCC
B2: PDR n2 (dsDNA)
DNA 1: AAACTGGAATCGAAACTTTGCGGCCTTGCGGTGATAAAAACATTTTT
DNA 2: AAAAATGTTTTTATCACCGCAAGGCCGCAAAGTTTCGATTCCAGTTT
B3: PIR n8 (dsDNA)
DNA 1: ATGTTTAGTGGAAATGATTGCGGCATCTCCACCGCAAAAAATATTGCTGTAAAT
DNA 2: ATTTACAGCAATATTTTTTGCGGTGGAGATGCCGCAATCATTTCCACTAAACAT
B4: PIR n10 (dsDNA)
DNA 1: ATGTTTAGTGGAAATGATTGCGGCATCTCCACACCGCAAAAAATATTGCTGTAAAT
DNA 2: ATTTACAGCAATATTTTTTGCGGTGTGGAGATGCCGCAATCATTTCCACTAAACAT
B5: PDR n10 (dsDNA)
DNA 1: AAACTGGAATCGAAACTTTGCGGCCATTACCATTTGCGGTGATAAAAACATTTTT
DNA 2: AAAAATGTTTTTATCACCGCAAATGGTAATGGCCGCAAAGTTTCGATTCCAGTTT
B6: PIR n1 (dsDNA)
DNA 1: ATGTTTAGTGGAAATGATTGCGGCCCGCAAAAAATATTGCTGTAAAT
DNA 2: ATTTACAGCAATATTTTTTGCGGGCCGCAATCATTTCCACTAAACAT
B7: PIR n3 (dsDNA)
DNA 1: ATGTTTAGTGGAAATGATTGCGGCATCCGCAAAAAATATTGCTGTAAAT
DNA 2: ATTTACAGCAATATTTTTTGCGGATGCCGCAATCATTTCCACTAAACAT
B8: PIR n6 (dsDNA)
DNA 1: ATGTTTAGTGGAAATGATTGCGGCATCTCCCGCAAAAAATATTGCTGTAAAT
DNA 2: ATTTACAGCAATATTTTTTGCGGGAGATGCCGCAATCATTTCCACTAAACAT
B9: PIR n14 (dsDNA)
DNA 1: ATGTTTAGTGGAAATGATTGCGGCATCTCCACATACCCCGCAAAAAATATTGCTGTAAAT
DNA 2: ATTTACAGCAATATTTTTTGCGGGGTATGTGGAGATGCCGCAATCATTTCCACTAAACAT
B10: Ppel DR3 only (dsDNA)
DNA 1: CGGCCGGTTTTTTTTTGGCTGTTCTTTGCGGTGGGATTTTGCAGAAT
DNA 2: ATTCTGCAAAATCCCACCGCAAAGAACAGCCAAAAAAAAACCGGCCG
B11: PIR n2 (dsDNA)
DNA 1: ATGTTTAGTGGAAATGATTGCGGCACCGCAAAAAATATTGCTGTAAAT
DNA 2: ATTTACAGCAATATTTTTTGCGGTGCCGCAATCATTTCCACTAAACAT
B12: PDR n1 (dsDNA)
DNA 1: AAACTGGAATCGAAACTTTGCGGCTTGCGGTGATAAAAACATTTTT
DNA 2: AAAAATGTTTTTATCACCGCAAGCCGCAAAGTTTCGATTCCAGTTT
B13: Ppel DR2 only (dsDNA)
DNA 1: CGGCCGGTTTTTTTTTTTGCGGTCTTTGCGGTGGGAGTCTTTAGAAT
DNA 2: ATTCTAAAGACTCCCACCGCAAAGACCGCAAAAAAAAAAACCGGCCG
B14: Ppel DR1 only (dsDNA)
DNA 1: CGGCCTTTTGGTTTTTTTGCGGTCTGGCTGTTGGGAGTCTTTAGAAT
DNA 2: ATTCTAAAGACTCCCAACAGCCAGACCGCAAAAAAACCAAAAGGCCG
B15: PDR n9 (dsDNA)
DNA 1: AAACTGGAATCGAAACTTTGCGGCCATTACCATTGCGGTGATAAAAACATTTTT
DNA 2: AAAAATGTTTTTATCACCGCAATGGTAATGGCCGCAAAGTTTCGATTCCAGTTT
B16: PDR n7 (dsDNA)
DNA 1: AAACTGGAATCGAAACTTTGCGGCCATTACTTGCGGTGATAAAAACATTTTT
DNA 2: AAAAATGTTTTTATCACCGCAAGTAATGGCCGCAAAGTTTCGATTCCAGTTT
B17: PDR n15 (dsDNA)
DNA 1: AAACTGGAATCGAAACTTTGCGGCCATTACCATCTACTTTGCGGTGATAAAAACATTTTT
DNA 2: AAAAATGTTTTTATCACCGCAAAGTAGATGGTAATGGCCGCAAAGTTTCGATTCCAGTTT
B18: PDR n3 (dsDNA)
DNA 1: AAACTGGAATCGAAACTTTGCGGCCATTGCGGTGATAAAAACATTTTT
DNA 2: AAAAATGTTTTTATCACCGCAATGGCCGCAAAGTTTCGATTCCAGTTT
B19: PDR G3T (dsDNA)
DNA 1: AAACTGGAATCGAAACTTTGCGGCCATTTTTCGGTGATAAAAACATTTTT
DNA 2: AAAAATGTTTTTATCACCGAAAAATGGCCGCAAAGTTTCGATTCCAGTTT
B20: PIR C4A (dsDNA)
DNA 1: ATGTTTAGTGGAAATGATTGCGGCATCCCGAAAAAAATATTGCTGTAAAT
DNA 2: ATTTACAGCAATATTTTTTTCGGGATGCCGCAATCATTTCCACTAAACAT
B21: PDR ex7 (RE4 T1C) (dsDNA)
DNA 1: AAACTGGAATCGAAACTTTGCGGCCATTCTGCGGTGATAAAAACATTTTT
DNA 2: AAAAATGTTTTTATCACCGCAGAATGGCCGCAAAGTTTCGATTCCAGTTT

One data set addresses T1, ComA. Kind of data set: EMSA; EMSA: 10 mM HEPES pH 7.6, 2 mM MgCl2, 0.1 mM EDTA, 200 mM KCl, 5 mM DTT, 10% glycerol; 10 ng DNA in 15 ul, 20 min, room temperature. The settings on record: protein: recombinant; tags: N-terminal His6 (from expression primer); chain copies: 2; label: 5' biotin on strand 1; blunt. A general note: A gel shift assay detects complexes by their altered migration in electrophoresis.
B1: the binding result is recorded as “binds”. Take B2: the binding result was “no binding”. On the same count and under the same terms, with B3 the entry was “no binding”. The same measure, in the same setting: as for B4, the entry is “no binding”; as for B5, “no binding”.

Turning to B6, the binding result was “no binding”. Same read-out and setting: with B7 the entry was “no binding”; with B8, “no binding”. With B9, the binding result is “no binding”. The same measure, in the same setting: with B10 the entry was “no binding”. Still for that read-out and setting: as for B11, the entry is “no binding”. Same read-out and setting: with B12 the entry was “no binding”; with B13, “no binding”; with B14, “no binding”. B15: the binding result is on record as “no binding”. Turning to B16, the binding result is “no binding”. Turning to B17, the binding result is listed as “no binding”. As to B18, the binding result is “no binding”.

Another data set addresses T1, ComA. The description is as above. The note with it: protein: recombinant; tags: N-terminal His6 (from expression primer); chain copies: 2; label: 5' biotin on strand 1; blunt. This is another data set of the same source.
With B19, the binding signal was approximately 2 fold reduced affinity. Take B20: the binding signal was approximately 2 fold reduced affinity.

The target in the next data set is T1, ComA. The data set is described as above. The settings on record: protein: recombinant; tags: N-terminal His6 (from expression primer); chain copies: 2; label: 5' biotin on strand 1; blunt. The source holds these as a separate data set.
On to B21, for which the binding signal was approximately 2 fold reduced affinity.
